Data published in patent US20190202925A1.

Tests used:
[1] = molecular target: human TNFR2 on cells (human) (UniProt P20333); experiment: flow cytometry on human PBMC, antibody at 10 ug/mL, anti-human Fc-PE secondary; negative control
[2] = molecular target: cynomolgus TNFR2 on cells (cynomolgus); experiment: flow cytometry on cynomolgus PBMC, antibody at 10 ug/mL, anti-human Fc-PE secondary; negative control

Chain of human TNFR2 on cells (human) (P20333 23-461): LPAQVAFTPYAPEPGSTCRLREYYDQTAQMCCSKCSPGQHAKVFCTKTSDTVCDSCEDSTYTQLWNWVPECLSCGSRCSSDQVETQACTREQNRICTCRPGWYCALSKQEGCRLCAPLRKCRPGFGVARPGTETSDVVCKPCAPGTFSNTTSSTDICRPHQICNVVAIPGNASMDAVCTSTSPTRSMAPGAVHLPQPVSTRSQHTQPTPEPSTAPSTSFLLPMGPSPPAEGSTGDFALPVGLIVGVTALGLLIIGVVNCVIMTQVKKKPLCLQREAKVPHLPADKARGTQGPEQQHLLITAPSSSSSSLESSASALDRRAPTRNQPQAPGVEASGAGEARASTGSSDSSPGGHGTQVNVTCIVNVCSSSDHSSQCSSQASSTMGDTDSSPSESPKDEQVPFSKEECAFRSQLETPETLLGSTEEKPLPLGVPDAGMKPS

With “Isotype Control (Negative Control) (antibody)” the % CD4^+ ab^+ Donor 1 [1] was 0.7%, the % CD4^+ ab^+ Donor 2 [1] was 0.7% and the % CD8^+ ab^+ Donor 1 [1] was 0.5%. For the same substance, the % CD8^+ ab^+ Donor 2 [1] was 0.7%, the % CD4^+ ab^+ Donor 1 [2] was 0.2% and the % CD4^+ ab^+ Donor 2 [2] was 0.5%. It also gave a % CD8^+ ab^+ Donor 1 [2] of 0.2% and a % CD8^+ ab^+ Donor 2 [2] of 0.6%.
